Assay results from the supplement of paper PMC9112550, “Optimization of the antimicrobial peptide Bac7 by deep mutational scanning” (BMC Biology, 2022).

System: Escherichia coli TOP10
Test: shrunken log2 fold change of peptide-encoding DNA abundance (4.5 h post-induction vs induction); higher = less antimicrobial activity (less host growth inhibition)
Details: time post-induction: 4.5 h; library: site-saturation at positions 5, 18, 19, 20
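Note: peptides expressed intracellularly from a pBAD plasmid library in pooled LB shake-flask culture, induced with 0.3% L-arabinose, DNA abundance read by NGS, three biological replicates, DESeq2 with apeglm shrinkage.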

| Sequence | shrunken log2 fold change |
| --- | --- |
| RRIRSRPPRLPRPRPRPCKPPRP | -0.173 |
| RRIRYRPPRLPRPRPRPPQMPRP | 0.0297 |
| RRIRVRPPRLPRPRPRPHSFPRP | -0.155 |
| RRIRWRPPRLPRPRPRPPEIPRP | -0.0659 |
| RRIRRRPPRLPRPRPRPEMAPRP | 0.145 |
| RRIRERPPRLPRPRPRPKLSPRP | -0.173 |
| RRIRERPPRLPRPRPRPKHPPRP | -0.0977 |
| RRIRFRPPRLPRPRPRPKLAPRP | 0.559 |
| RRIRQRPPRLPRPRPRPPPVPRP | 0.607 |
| RRIRTRPPRLPRPRPRPDPNPRP | 0.0586 |
| RRIRVRPPRLPRPRPRPFGGPRP | -0.216 |
| RRIRRRPPRLPRPRPRPTNIPRP | -0.304 |
| RRIRLRPPRLPRPRPRPIAQPRP | -0.0527 |
| RRIRMRPPRLPRPRPRPSMVPRP | 0.0557 |
| RRIRNRPPRLPRPRPRPFTHPRP | -0.374 |
| RRIRCRPPRLPRPRPRPSEDPRP | -0.112 |
| RRIRSRPPRLPRPRPRPQVSPRP | -0.236 |
| RRIRMRPPRLPRPRPRPCWCPRP | -7.44e-05 |
| RRIRHRPPRLPRPRPRPIYQPRP | -0.316 |
| RRIRHRPPRLPRPRPRPQRGPRP | -0.0034 |
| RRIRWRPPRLPRPRPRPVEAPRP | 0.249 |
| RRIRVRPPRLPRPRPRPLGQPRP | 0.131 |
| RRIRRRPPRLPRPRPRPMIPPRP | -0.062 |
| RRIRQRPPRLPRPRPRPIIMPRP | -0.25 |
| RRIRGRPPRLPRPRPRPTESPRP | 0.803 |

| Sequence | shrunken log2 fold change |
| --- | --- |
| RRIRDRPPRLPRPRPRPTSGPRP | 0.151 |
| RRIRVRPPRLPRPRPRPYMYPRP | -0.588 |
| RRIRARPPRLPRPRPRPAKGPRP | 0.342 |
| RRIRYRPPRLPRPRPRPADGPRP | 0.143 |
| RRIRDRPPRLPRPRPRPDSQPRP | -0.0289 |
| RRIRFRPPRLPRPRPRPFGRPRP | -0.199 |
| RRIRIRPPRLPRPRPRPRDAPRP | 0.215 |
| RRIRYRPPRLPRPRPRPVLVPRP | -0.507 |
| RRIRWRPPRLPRPRPRPQWLPRP | 0.275 |
| RRIRKRPPRLPRPRPRPYGAPRP | 0.00792 |
| RRIRARPPRLPRPRPRPYMFPRP | -0.262 |
| RRIRWRPPRLPRPRPRPQMCPRP | 0.349 |
| RRIRKRPPRLPRPRPRPVIRPRP | 0.0302 |
| RRIRERPPRLPRPRPRPIEPPRP | -0.26 |
| RRIRARPPRLPRPRPRPNYNPRP | -0.556 |
| RRIRLRPPRLPRPRPRPWNYPRP | -0.43 |
| RRIRLRPPRLPRPRPRPFQRPRP | -0.0382 |
| RRIRFRPPRLPRPRPRPLYYPRP | -0.885 |
| RRIRWRPPRLPRPRPRPWVKPRP | -0.00207 |
| RRIRRRPPRLPRPRPRPILQPRP | 1.83 |
| RRIRCRPPRLPRPRPRPSEMPRP | -0.286 |
| RRIRERPPRLPRPRPRPNGTPRP | -0.0811 |
| RRIRQRPPRLPRPRPRPARHPRP | 0.0911 |
| RRIRQRPPRLPRPRPRPNYQPRP | -0.491 |
| RRIRDRPPRLPRPRPRPVQMPRP | -0.0835 |

| Sequence | shrunken log2 fold change |
| --- | --- |
| RRIRTRPPRLPRPRPRPYCNPRP | -1.32 |
| RRIRARPPRLPRPRPRPAHRPRP | 0.326 |
| RRIRKRPPRLPRPRPRPCWVPRP | 0.259 |
| RRIRGRPPRLPRPRPRPAEIPRP | 0.076 |
| RRIRMRPPRLPRPRPRPPLEPRP | 0.873 |
| RRIRARPPRLPRPRPRPSEGPRP | -0.00533 |
| RRIRNRPPRLPRPRPRPFCYPRP | 0.166 |
| RRIRIRPPRLPRPRPRPSDRPRP | -0.24 |
| RRIRSRPPRLPRPRPRPQPPPRP | 0.489 |
| RRIRPRPPRLPRPRPRPTHWPRP | 0.484 |
| RRIRLRPPRLPRPRPRPDNLPRP | -0.186 |
| RRIRDRPPRLPRPRPRPFAAPRP | 1.62 |
| RRIRNRPPRLPRPRPRPKWSPRP | 0.0717 |
| RRIRHRPPRLPRPRPRPDNGPRP | -0.00804 |
| RRIRVRPPRLPRPRPRPGNGPRP | 0.023 |
| RRIRWRPPRLPRPRPRPLWSPRP | -0.13 |
| RRIRPRPPRLPRPRPRPHVKPRP | -0.013 |
| RRIRKRPPRLPRPRPRPKHYPRP | -0.283 |
| RRIRYRPPRLPRPRPRPFYSPRP | -1.23 |
| RRIRWRPPRLPRPRPRPDADPRP | 3.34 |
| RRIRWRPPRLPRPRPRPPQGPRP | 0.226 |
| RRIRARPPRLPRPRPRPACAPRP | 0.922 |
| RRIRHRPPRLPRPRPRPWIEPRP | 0.0254 |
| RRIRHRPPRLPRPRPRPTPMPRP | 0.0946 |
| RRIRTRPPRLPRPRPRPTYVPRP | -0.163 |

| Sequence | shrunken log2 fold change |
| --- | --- |
| RRIRFRPPRLPRPRPRPFLKPRP | -0.145 |
| RRIRQRPPRLPRPRPRPRIFPRP | -0.131 |
| RRIRERPPRLPRPRPRPRVVPRP | 0.069 |
| RRIRRRPPRLPRPRPRPKRGPRP | 0.44 |
| RRIRARPPRLPRPRPRPHTQPRP | -0.0761 |
| RRIRIRPPRLPRPRPRPDGWPRP | -0.279 |
| RRIRHRPPRLPRPRPRPQAFPRP | -0.0247 |
| RRIRWRPPRLPRPRPRPPWPPRP | 0.503 |
| RRIRGRPPRLPRPRPRPIAMPRP | 0.401 |
| RRIRHRPPRLPRPRPRPFSTPRP | -0.304 |
| RRIRYRPPRLPRPRPRPYWLPRP | -1.14 |
| RRIRYRPPRLPRPRPRPWLEPRP | -0.118 |
| RRIRPRPPRLPRPRPRPVTLPRP | 0.527 |
| RRIRMRPPRLPRPRPRPAAVPRP | 1.44 |
| RRIRDRPPRLPRPRPRPFDPPRP | -0.119 |
| RRIRPRPPRLPRPRPRPHFDPRP | -0.0993 |
| RRIRKRPPRLPRPRPRPYSQPRP | 0.0349 |
| RRIRWRPPRLPRPRPRPWDPPRP | -0.101 |
| RRIRSRPPRLPRPRPRPDWYPRP | -0.3 |
| RRIRSRPPRLPRPRPRPVWWPRP | 0.131 |
| RRIRPRPPRLPRPRPRPAAAPRP | 0.56 |
| RRIRARPPRLPRPRPRPFQPPRP | 0.0667 |
| RRIRWRPPRLPRPRPRPYSDPRP | -0.381 |
| RRIRARPPRLPRPRPRPGTVPRP | 0.336 |
| RRIRERPPRLPRPRPRPPDYPRP | -0.202 |

| Sequence | shrunken log2 fold change |
| --- | --- |
| RRIRYRPPRLPRPRPRPNADPRP | -0.0823 |
| RRIRPRPPRLPRPRPRPGNMPRP | -0.119 |
| RRIRWRPPRLPRPRPRPQETPRP | -0.00116 |
| RRIRCRPPRLPRPRPRPCSGPRP | -0.513 |
| RRIRERPPRLPRPRPRPSGHPRP | -0.289 |
| RRIRVRPPRLPRPRPRPQCQPRP | 0.148 |
| RRIRNRPPRLPRPRPRPWDGPRP | 0.185 |
| RRIRTRPPRLPRPRPRPMFQPRP | -0.446 |
| RRIRCRPPRLPRPRPRPPCYPRP | -0.265 |
| RRIRKRPPRLPRPRPRPISVPRP | -0.056 |
| RRIRSRPPRLPRPRPRPSCPPRP | -0.494 |
| RRIRFRPPRLPRPRPRPKGDPRP | 0.054 |
| RRIRFRPPRLPRPRPRPCKLPRP | -1.48 |
| RRIRFRPPRLPRPRPRPWMWPRP | -0.0253 |
| RRIRCRPPRLPRPRPRPDMAPRP | -0.145 |
| RRIRIRPPRLPRPRPRPKTYPRP | -0.879 |
| RRIRMRPPRLPRPRPRPHEAPRP | 0.0628 |
| RRIRDRPPRLPRPRPRPCLDPRP | -0.0178 |
| RRIRGRPPRLPRPRPRPYSPPRP | -0.528 |
| RRIRSRPPRLPRPRPRPFYHPRP | -0.28 |
| RRIRMRPPRLPRPRPRPYEQPRP | -0.222 |
| RRIRHRPPRLPRPRPRPTVDPRP | -0.0548 |
| RRIRNRPPRLPRPRPRPATWPRP | -0.000853 |
| RRIRMRPPRLPRPRPRPGTMPRP | -0.115 |
| RRIRYRPPRLPRPRPRPRSYPRP | -0.879 |

| Sequence | shrunken log2 fold change |
| --- | --- |
| RRIRCRPPRLPRPRPRPIDKPRP | -0.161 |
| RRIRNRPPRLPRPRPRPQRFPRP | -0.155 |
| RRIRQRPPRLPRPRPRPNLFPRP | -0.0199 |
| RRIRLRPPRLPRPRPRPTRSPRP | 0.467 |
| RRIRQRPPRLPRPRPRPALRPRP | -0.00883 |
| RRIRIRPPRLPRPRPRPLVDPRP | 0.126 |
| RRIRQRPPRLPRPRPRPIKDPRP | -0.034 |
| RRIRNRPPRLPRPRPRPQSRPRP | 0.181 |
| RRIRFRPPRLPRPRPRPNCFPRP | -0.193 |
| RRIRWRPPRLPRPRPRPCPGPRP | -0.218 |
| RRIRFRPPRLPRPRPRPGLMPRP | -0.125 |
| RRIRCRPPRLPRPRPRPYFTPRP | -0.774 |
| RRIRSRPPRLPRPRPRPENQPRP | -0.0853 |
| RRIRVRPPRLPRPRPRPGMMPRP | 0.135 |
| RRIRHRPPRLPRPRPRPQCNPRP | -0.169 |
| RRIRWRPPRLPRPRPRPLPYPRP | -0.192 |
| RRIRYRPPRLPRPRPRPSEFPRP | -0.218 |
| RRIRSRPPRLPRPRPRPHITPRP | -0.734 |
| RRIRIRPPRLPRPRPRPGFEPRP | 3.71 |
| RRIRFRPPRLPRPRPRPRWDPRP | 0.284 |
| RRIRPRPPRLPRPRPRPECMPRP | 0.212 |
| RRIRNRPPRLPRPRPRPACLPRP | 0.146 |
| RRIRIRPPRLPRPRPRPEYDPRP | 0.0262 |
| RRIRNRPPRLPRPRPRPVQGPRP | 0.295 |
| RRIRDRPPRLPRPRPRPKWCPRP | 0.135 |
